In the nanobody polyreactivity screen of Harvey et al. (2022):

Assay: yeast display, Sf9 membrane polyspecificity reagent, FACS + sequencing; frameworks hold sequencing errors
How it was run: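 In a synthetic yeast display library (Saccharomyces cerevisiae BJ5465), nanobody expression was induced with galactose for 36–48 hours. FACS gates were set low and high (top ~1%) using anti-HA fluorescence for expression and streptavidin fluorescence for binding of the Sf9 membrane reagent. Each polyreactivity label is drawn from the gate of origin.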

Sequence	polyreactivity (PSR sort gate)
QDQLVESGGGLVQAGGSLRLSCAASGNIFPSYVMGWYRQAPGKERELVAAITWKGGSTYYADSVKGRFTISRDNAKNTVYLQMNSLKPEDTAVYYCNAVGNLYSRDDYWGQGTQVTVSS	low polyreactivity
QDQLVESGGGLVQAGGSLRLSCAASGNIFVTNAMGWYRQAPGKERELVAAITYSGGTTYYADSVKGRFTISRDNAKNTVYLQMNSLKPEDTAVYYCAADFATWTYYPYRLDEFDYWGQGTQVTVSS	low polyreactivity
QDQLVESGGGLVQAGGSLRLSCAASGRIFDTNAMGRYRQAPGKERELVATNTRSAGRTYYADSVKGRFTISRDNAKIKVFLQMNILKPEDTAVYFCNADWGPTYEIYDSWGQGTQVTVSS	low polyreactivity
QDQLVESGGGLVQAGGSLRLSCAASGRIFGWYAMGWYRQAPGKERELVAAISNDGSTNYADSVKGRFTISRDNAKNTVYLQMNSLKPEDTAVYYSAARFYRSSYGWYGYWGQGTQVTVSS	high polyreactivity
QDQLVESGGGLVQAGGSLRLSCAASGRIFIVYAMGWYRQAPGKERELDAAISRNGGRTYYADSVKGRFTISRDNAKNSVDLQMNSLKPEDTSVYYCNSVALYPYTTYDYWGQGSQVTVSS	high polyreactivity
QDQLVESGGGLVQAGGSLRLSCAASGRIFRPNTMGWYRQAPGKERELVASISLSAGSTYYADSVKGRFTISRDNAKNTVYLQMNSLKPEDTAVYYCNATYLSWYRYKYNYWGQGTQVTVSS	low polyreactivity
QDQLVESGGGLVQAGGSLRLSCAASGRIFTGNAMGWYRQAPGKERELVAAITKSGGSTYYADSVKGRFTISRDNAKNTVYLQMNSLKPEDTAVYYCAATRYLHYVYKYGYWGQGTQVTVSS	high polyreactivity
QDQLVESGGGLVQAGGSLRLSCAASGRIFVYYVMGWYRQAPGKERELVAAITYSGGSTYYADSVKVRFTISRDNAKNTVYLQMNSLKPEDTAVYACNKVDAFGIVRLYYWGQGTQVTVSS	low polyreactivity
QDQLVESGGGLVQAGGSLRLSCAASGRTFGYNAMGWYRQAPGKERELVAANNWSGASTYYADSVKGRFTISRDNAKNTVYLQMNSLKPDDSAVYYCAADYSYIYGFDYWGQGTQVTVSS	low polyreactivity
QDQLVESGGGLVQAGGSLRLSCAASGRTFGYYVMGWYRQAPGKERELVAAISRSGGTTYYADSVKGRFTISRDNAKNTVYLQMNSLKPEDTAVYYCATDSRTGYDYWGQGTQVTVSS	high polyreactivity
QDQLVESGGGLVQAGGSLRLSCAASGRTFIRNAMGWYRQAPGKERELVAAISRSGGRTYYADSVKGRFTISRDNAKNTVYLQMNSLKPEDTAVYYCAAGSYQRYAFDYWGQGTQVTVSS	high polyreactivity
QDQLVESGGGLVQAGGSLRLSCAASGRTFQYNAMGWDRQARGSERELVAAISSSGGSTYYADSVKGRFTISRDNAKNTVYLQMNSLKPEDTAVYYCNAYSQSWNFYGDGDYWGQGTQVTVSS	low polyreactivity
QDQLVESGGGLVQAGGSLRLSCAASGRTFRYNTMGWYRQAPGKERELVASISWGGGSTYYADSVKGRFTISRDTAKNTVYLQMNSLKPEDTAVYYCAARRWGQFRFEYWGQGTQVTVSS	high polyreactivity
QDQLVESGGGLVQAGGSLRLSCAASGRTFSYNAMGWYRQAPRKERELVAAISYDGGRTYYADSVKGRFTISRDNAKNTFYLQMNSLKPEDTAVYYCAAYPYRGPHTWTIGDYWGQGTQVTVSS	low polyreactivity
QDQLVESGGGLVQAGGSLRLSCAASGRTFWAYAMGWYRQAPGKEREVVASIRSSGTSTYYADSVMGRFTISRDNAKNSVYLQMNSLKPEDTAVYYCAATSGYARYYHREYWGQGTQVTVSS	high polyreactivity
QDQLVESGGGLVQAGGSLRLSCAASGRTFYYAMGWYRQAPGKERYADSVKGRFTISRDNAKNTVYLQMNSLKPEDTAVYYCAAKVPEPPSLDESDYWGQGTQVTVSS	low polyreactivity
QDQLVESGGGLVQAGGSLRLSCAASGRTIKTYAMGWYRQAPGKVRELVAAIRRRGGSTYYADSVKGRFTISRDNAKNTVYLQMHSLKPEDTAVYYCAAGYVTYRDAHVSMDYCGQGTQVTVSS	high polyreactivity
QDQLVESGGGLVQAGGSLRLSCAASGRTISYYAMGWYRQAPGKERELVAAISGGGSTNYADSVKGRFTISRDNAKNTVYLQMNSLKPEDTAVYYCNARVYGVFRRRVNYWGQGTQVTVSS	high polyreactivity
QDQLVESGGGLVQAGGSLRLSCAASGSIFDIYAMGWYRQAPGKEREMVASIRRRGGSTYYADSVKGRFTISRDNAKNTVYLQMNSLKPEDTAVYDCNARRVWLRTTWTNWPERGYWGQGTQVTVSS	high polyreactivity
QDQLVESGGGLVQAGGSLRLSCAASGSIFDPYTMGWYRQAPGKERELVAAINWSGGSTSYADSVKGRFTISRDNAKNPVYLQMNSLKPEDTAVYYCNADPHGYYGYGYDYWGQGTQVTVSS	low polyreactivity
QDQLVESGGGLVQAGGSLRLSCAASGSIFGVYAMGWNRQAPGKERELVAAITRGGRTYYADSVKGRFTISRDNAKNTVYLQMNCLKPEDTAVYYCAALPLRERYGYWGQGTQVTVSS	high polyreactivity
QDQLVESGGGLVQAGGSLRLSCAASGSIFLKYVMGVYRPEPGKERELVASISSGGGTYYADSVKGRFTISRDNAKNTVYLQMNILKPEDTAVYYCARRPYRGSYAFDYWGQGTQVTVSS	low polyreactivity

Sequence	polyreactivity (PSR sort gate)
QDQLVESGGGLVQAGGSLRLSCAASGSIFPNYAMGWYRQAPGKERELVAAISSSGGRTYYADSVKGRFTISRDNAKNTVYLQMNSLKPEDTAVYYCAADTYTSAQHEKYDYWGQGTQVTVSS	low polyreactivity
QDQLVESGGGLVQAGGSLRLSCAASGSIFRYYAMGWYIQAPGKEREFVASITYRGGRTYYADSVKGRFTISRDNAKNTFFLQMNSLKPEDTAVYYCAARTRAGAWTSKYHDYWGQGTQVNVSS	high polyreactivity
QDQLVESGGGLVQAGGSLRLSCAASGSIFSTYAMGWYRQAPGKERELVAAIDGSGGSTYADSVKGRFTISRDNAKNTVYLQMNSLKPEDTAVYYCAVDSFLVYSAVRPYDYWGQGTQVTVSS	low polyreactivity
QDQLVESGGGLVQAGGSLRLSCAASGSIFVYNTMGWYRPAPRKESDLVAAISSSGGSTYYADSVKGRYTISRDNAKNTVYLQMNSLKPEDTAVYYCAAVNGYQYPPNYYNGYDYWGQGTQVTVSS	low polyreactivity
QDQLVESGGGLVQAGGSLRLSCAASGSIFYDKAMAWYRQAPGKEREFVASITNSGSTNYADSVKGRFTISRDNAKNTVYLQMNSLKAEDTAVYFCAAEVYVDYTGYSYFDYPYDYWGQGTHVTVSS	low polyreactivity
QDQLVESGGGLVQAGGSLRLSCAASGSIFYRNAMGWYRQAPGKERELVAAITRGGITNYADSVKGRFTISRDNAKNTVYLQMNSLKPEDTAVYYCPRVPGRTTQYDYWGQGTQVTVSS	low polyreactivity
QDQLVESGGGLVQAGGSLRLSCAASGSNFDRYTMGWYRQAPGKERELLAAITRRGGSTNYADSVKGRFTISRDNAKFTVYLQMISLKPEDTALYYCARATDLNDKPSWDEYWGQGTQVTVSS	high polyreactivity
QDQLVESGGGLVQAGGSLRLSCAASGSNFSWNDMGWYRQAPGKERELVAAITSDDTSTYYADSVKGRFTISRDNAKNSVYLQMNSLKPEDTAVYYCAADYGNPFDYWGQGTQVTVSS	low polyreactivity
QDQLVESGGGLVQAGGSLRLSCAASGSSFDINAMGGYRQAPGKERELVAAISWIGGSTYYADSVKGRFTISRDNAKNTVYLKMNSLKPEDTAVYYCAKKELRQYDMEYWGQGTQVTVSS	low polyreactivity
QDQLVESGGGLVQAGGSLRLSCAASGSSFFSNAMGWYRPAPGKERELVAAITSTGGSTYYADSVKGRFTISRDHAKNTVYLQMNSLKPEDTAVYYCAAASRRGYYYWGQGTQVTVSS	high polyreactivity
QDQLVESGGGLVQAGGSLRLSCAASGSTFFRNAMGWYRQAPGKERELVASITSGGNTKYADSVKGRFTISCDNAKNTVYVQMNSLKPEDTAVYYCAAQFYHFARYSRLYNSWGQGTQVTVSS	low polyreactivity
QDQLVESGGGLVQAGGSLRLSCAASGSTFHPYAMGWYRQAPGKERELVAAITFSGGSTYADSVKGRFTISRDNAKNTVYLQMNSLKPEDNAVYYCAAEWWYWRGWRDYWGQGTQVTVSS	low polyreactivity
QDQLVESGGGLVQAGGSLRLSCAASGSTFKYNAMGWYRQAPGQERELVAAITSGGSTDYADSVKGRFTISRDNAMNHVYFQMNLLNPEDTAVYYCNDDIYPHDGYPWQGDYDYWGQGTQVTVSS	low polyreactivity
QDQLVESGGGLVQAGGSLRLSCAASGSTFPDYAMGWYRQAPGKERELVAAISRSGGRTYYADSVKGRFTISRDNAKNTVYLQMNSLKPDDTAVYYCATSRVRSAGRDYWGQGTQVTVSS	high polyreactivity
QDQLVESGGGLVQAGGSLRLSCAASGSTFSKNTMGWYRQAPGKERELVAAITTRGSSTYYADSVKGRFTISRDNAKNTVYLQMNSLKPEDTAVYYCNAPYRVTGGRYRWYDYWGQGTQVTVSS	high polyreactivity
QDQLVESGGGLVQAGGSLRLSCAASGSTFSWYTMGWYRQAPGKERELVAAISKRGGSTYYADSVKGRFTISRDNAKNTVYLQMNSLKPEDTAVYYCNKDDERGKLYYWGQGTQVTVSS	high polyreactivity
QDQLVESGGGLVQAGGSLRLSCAASGSTFVKNAMGWYRQAPGKERELVATISKSAGRTYYADSVKGRFTISRDNAKNTVYLQMNSLKPEDTAVYYCNVVQKRDFDYWGQGTQVTVSS	high polyreactivity
QDQLVESGGGLVQAGGSLRLSCAASGSTFVRSVMGWYRQAPGKERELVAAISRRGGSTYYADSVKGRFTISRDNAKNTVYLQMNSQKPEDTAVYYCARTVGYRTLLESDSWGQGTQVTVAS	high polyreactivity
QDQLVESGGGLVQAGGSLRLSCAASGSTFVRYDMGWYRQAPGKERELVADISWSGVSTYADSVKGRFTISRDNAKNTVYLQMNSLKPEDTAVYYCAKDSDLYQRGGYYWGQGTQVTVSS	low polyreactivity
QDQLVESGGGLVQAGGSLRLSCAASGSTIRANAMGWYRQATGKERELVAAITKNGGSTYYADSVKGRFTISRDNAKNTVYLQMNSLKPEDTAVYYCAARRSSRRPPYYYWGQGTQVTVSS	high polyreactivity
QDQLVESGGGLVQAGGSLRLSCAASGSTLRRYAMGWYRQAPGKERELVAAISGSGDSTYYADSVKGRFTISRDNAKNTVYLQMNSLKPEDTAVYYCNAVYAFNGYDYWGQGTQVTVSS	low polyreactivity
